Assay: yeast display, Sf9 membrane polyspecificity reagent, FACS + sequencing; frameworks hold sequencing errors
Method in brief: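 Genes from sorted yeast were amplified by colony PCR, read by MiSeq 2 × 250 sequencing and filtered on CDR length. These cells carried a synthetic nanobody library in Saccharomyces cerevisiae BJ5465 and were sorted by FACS into low and high (top ~1%) gates on anti-HA and streptavidin fluorescence. Polyreactivity is labelled according to the gate of origin.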

| Sequence | polyreactivity (PSR sort gate) |
| --- | --- |
| QVQLVESGGGLVQAGGSLRLSCAASGITFPGYAMGWYRQAPGKERELVAVIRKSGTSTGGNTYYADSVKGRFTISRDNAKNTVYLQMNSLKPEDTAVYYCAKKYVWTHNYWGQGTQVTVSS | low polyreactivity |
| QVQLVESGGGLVQAGGSLRLSCAASGSISVWYVMGWYRQAPGKEREFVAAIDYGGGSTYADSVKGRFTISRDNAKNTVYLQMNSLKPEDTAVYYCNADNWVYLYDYWGQGTQVTVSS | low polyreactivity |
| QVQLVESGGGLVQAGGSLRLSCAASGSIFYYNTMGWYRQAPGKAREFVADISVNGGSTYYADSVKGRFTISRDNAKNTVYLQMNSLKPEDSAVYYCAARRYQRPHGLYGYWGQGTQVTVSS | low polyreactivity |
| QVQLVESGGGLVQAGGSLRLSCAASGSIFSRNAMGWYRQAPGKEREFVAAISWSGGRTYYADSVKGRFTISRDNAKNTVYLQMNSLKPEDTAVYYCSKGYSYHWYHVTFYSWGQGTQVTVSS | high polyreactivity |
| QVQRVESGGGLVQAGGSLRLSCAASGGIFDRYAMGWYRPAPGKERELVAVISGSVNTYADSVKGRFTISRDNAKNTVYLQMNSLKPEDTAVYYCATQFEGPSGFNYWGQGTQVTVSS | low polyreactivity |
| QVQLVESGGGLVQAGGSLRLSCAASGRTFNYYTMGWNRQAPGKEREFVAAITISGARTYYADSVKGRFTISRDNAKNTVYLQMNSLKPEDTAVYYCAARRRYRSRVTPVGYNYWGQGTQVTVSS | high polyreactivity |
| QVQLVESGGGLVQAGGSLRLSCAASGSIFSRYTMGWYRQPPGKERELVAAITSSGGRTYYADSVKGRFRISRDNAKNTVYLQLNSLKPVVTAVYYCAARIQKQQGYGYWGQGTQVTVSS | high polyreactivity |
| QVQLVESGGGLVQAGGSLRLSCAASGFTFTRYAMGWYRQAPGKERELVAAISRRGGSTYYADSVKGRFTISRDNAKNTVYLQMNSLKPEDTAVYYCAKDAGSRTVREFGYWGQGTQVTVSS | high polyreactivity |
| QVQRVESGGGLVQAGGSLRFSCAASGSTFSYYAMGWYSQAPGKERELVAVISRGGSTNYADSVKGRFTISRDNAKNTVYLQMNSLKPEDTAVYYCAAYVLPWRGRGQTEYGYSGQGTQVTVSS | low polyreactivity |
| QVQLVESGGGLVQAGGSLRLSCAASGIIFTNYSMGWYRQAPGKERELVAAISKGAGRTYYADSVKGRFTISRDNAKNTVYLQMNSLKPEDTAVYYCNKAKRSGGYPGVFSYDYWGQGTQVTVSS | high polyreactivity |
| QVQLVESGGGLVQAGGILRLSCAASGGIFSVYAMGWYRQAPGKERELVASITVSGGSTSYADSVKGRFTISRDNAKNTVYLQMNCLKPEDTAVYYCAADLLRYFGYYDYDSWGQGTQVTVSS | low polyreactivity |
| QVQLVETGGGLVQAGGSLRLSCAASGGIIRVYVMGWYIQAPGKERELVAAISRRGGSTYYADSVKGRFTISRDNAKNTVYLKMNSLKPEDTAVYYCAAYSTGTEFDYWGQGTQVSVSS | high polyreactivity |
| QVQLVESGGGLVQAGGSLRLSCAASGRIFNYNAMGWYRQAPGKERELVAAITRSTGNTYYADSVKGRFTISRDNAKNTVYLQMNSLKPEDTAVYYCAAAYAYWRKYDYWGQGTQVTVSS | high polyreactivity |
| QVQLVESGGGLVQAGRSLRLSCAASGTIFAFYAMGWYRQAPGIVRELVAAITWRGGRTTYADSVKGRFTISRDNAKNTVYLQMNSLKPEDTAVYYCAAVIHWWYATYDYWGQGTQVTVSS | high polyreactivity |
| QVQLVESGGGLVQAGGSLRLSCAASGFTFGLYAMGWYRQAPGKERELVAAISWSGDNTYYADSVKGRFTISRDNAKNTVYLQMNSLKPEDTAVYYCAKVTKRNQGYYYWGQGTQVTVSS | high polyreactivity |
| QVQLVESGGGLVQAGGSLRLSCAASGLTFQYNAMGWYRQAPGKERELVAVISWSGGSTYYADSVKGRFTISRDNAMNTVYLQMNSLIPEDTAVYYCNAVGFVWYFDVYSYFTEFKYDYWGQGTQVTVSS | low polyreactivity |
| QVQLVESGGGLVQAGGSLRLSSPASGLIFGAYAMGWYRQERGKERELVAAISYSGGRTYYADSVKGRFTMSRDNAKNTVYLQLNSLKPEDTAVYYCNALWYLSLSYRYDYWGQGTQVTVSS | high polyreactivity |
| QVQLVESGGGIVQAGGSLRLSCAASGRTSVVNAMGWYRQAPGKERELVAAITSGGSTHYADSVKGRFTISRDNAKNTVYLQINSLKPEDTAVYYCNARDRRRTNLLDYWGQGSQVTVSS | low polyreactivity |
| QVQLVESGGGLVQPGGSLRLSCAASGSIFAYNAMGWSRQAPGKERELVAAISSGGRTKYADSVKGRFTITRDNAKITVYFQMNRQKPEDTAVYYCAAESYTGKYSWVWKWYDYWGQGTQVSVSS | low polyreactivity |
| QVQLVESGGGLVQAGGSLRLSCAASGRITGIYAMGWYRPAPGKERELVAAITWRGGRTCYADSVKGRFTISRDNAKNSVYLQMNSLKPEDTAVYYCAAELQGAYYFAYYYWGQGTQVTVSS | high polyreactivity |
| QVQLVESGGGLVQAGGSLRLSCAASGSTLIDYTMGWYRQAPGKERELVAAISSGGSTNYADSVKGRFTISRDNAKNTVYLQMNSLKPEDTAVYYCAKDHQRYFYGFWEHPRYDYWGQGTQVTVSS | high polyreactivity |
| QVQLVESGGGLVQAGGSLRLSCAASGRIFSVYDMGWYRQAPGKERELVAAIDTSDGSTNYADSVKGRFTISRDNAKNTVYLQMNSLKPEDTAVYYCNATDSYVPFDYWGQGTQVTVSS | low polyreactivity |

| Sequence | polyreactivity (PSR sort gate) |
| --- | --- |
| QVQLVESGGGLVQAGGSLRLSCAASGRTFRYYAMGWYIQAPGKERELVAAISWRGGSTYYAYSVKGRFTLSRDYAKNTVYLQINSLKPEDTAVYYCAAGILFGHYDYWGQATQVTVSS | high polyreactivity |
| QVQIVESGGGLVQAGGSLSLSCAASGFIFSVNDMGWYRQAPGKERELVAAISRDSGSKYYADSVKGRFTISRDNAQNSVYLEMISLKPEDTAVYDCNGEGQWVWDPYGVYDDDSYNYWGQGTQVTVSS | low polyreactivity |
| QVQLVESGGGLVQAGGSLRLSCAASGITFRKYAMGWYRQAPGKERELVAGIRYSGSSTYYADSVKGRFTISRDNAKNTVYLQMNSLTPEDTAVYYCAVYGTTRYATTYDYWGQGTQVTVSS | high polyreactivity |
| QVQLVESGGGLVQAGGSLRLSCAASGFTFSDHAMGWYRQAPGKERELVAAISRSRGNTHYADSVKGRFTISRDNAKNTVYLQMNSLKPEDTAVYYCNAVQGQGQYEYWGQATQVTVSS | high polyreactivity |
| QVQLVESGGGLVQAGGSLRLSCAASGFIFWQYTLGWYRQAPGKERELVAAINGGSSTYYADSVKGRFTISRDNAKNTVYVQKNSRKPEDTAVYYCAADRYLYHDRYEYDYWGQGTQVTVSS | high polyreactivity |
| QVQLVESGGGLVQAGGILRLSCAASGRIFRYYAMGWYRQAPGKERELVAGITRGGTTNYADSVKGRFTISRDNAKNTVYLQMNSLKPEDTAVYYCAAETRRGIIGYDYWGQGTKVTVSS | high polyreactivity |
| QVQLVESGGGLVQAGGSLRLSCAASGLIFRAYAMGWYRQAPGKERELVAAISRNGGSTYYADSVKGRFTISRDNAKTTVYLQMNSLKPEDTAVYYCNKVSRSSVYLDYYYWGQGTQVTVSS | high polyreactivity |
| QVQLVESGGVLVQAGGSLRLSCAASGSIFDTYAMGWYRQAPGKERELVAAITWSGSSTYYADSVKGRFTISRDNAKNTVYLQMNSLKQEDTAVYYCAKDYYVEVTTEYDYWGQGTQVTVSS | high polyreactivity |
| QVQLVESGGGLGQAGGSLRLSCAASGFTFTYNDMGWYRQAPGKEREFVAAISSTGGSTYYADSVKGRFTISRDNAKNTVYLQMNSLKPEDTAVYYCAAEDSWYWDAWFDYWGQGTQVTVSS | low polyreactivity |
| QVQLVESGGGLVQAGGSLRISCAASGSLFYRYAMGWYRQAPGKEREMVAAINDSGGGTYYADSVKGRFTISRDKAKNTVYLQMNSLKPEDTAVYYCAAATHNKHTARDDYWGQGTQVNVSS | low polyreactivity |
| QVQLVESGGGLVQAGGSLRLSCAASGIIFYDNAMGWYRQAPGKERALVAALTWTGSSTYYADSVKGRFTISRDNAKNTVYLQMNSLKPEDTAVSYCNARASYGHQGRLGYARLYYWGQGTQVTVSS | high polyreactivity |
| QVQLVESGGGLVQAGGSLRLSCAASGTIFTHNAMGWYRQAAGKEREFVAAISSGGSTNYADSVNGRFTISRDNAKNTVYLQMNSLKPQDTAVYYCAKSIDGWYWRRRRYDYWGHGTQVTVSS | low polyreactivity |
| QVKLVESGGGLVQAGASLRLSCAASGIISYGNAMGRYRQAPGKERELVASISGISGSTYYADSVKGRFTISRDNAKNTVYLQMNSLKPEDTAVYYCNARYPTYRASYHGDYWGQGTQVTVSS | low polyreactivity |
| QVQLVESGGGLVQAGGSLRLSCAASGSIFPFYAMGWFRQAPGKERELVAAISWSGGSTYYADSVKGRFTISRDNAKNTVYLQMNSLKPEDTAVYYCNRADGYSFSLNRSDYWGQGTQVTVSS | low polyreactivity |
| QVQLVESCGGLVQAGGSLRLSCAASGLIFPVYAMGWYRQAPGKEREFVASIWRGGTTYYADSVKGRFTISRDNEKNTVYLQMNSLKPEDTAVYYCAARDYPRGLVFPFTKYDYWGQGTQVTVSS | high polyreactivity |
| QVQLVESGGGLVQAGGSLRLSCAASGRTFVYYAMGWYRQAPGKERELVAAIRSGGSTNYADSVKGLFSISRDTAKNTVSLQMNSLKPEDTSVYYCNAVHYYYYKGDYWGQGTQVTVSS | high polyreactivity |
| QVQLVESGGCLVQAGGSLRLSCAASGYIFSGYAMGWYRQAPGKERELVAAISSNGGSTYYADSVKGRFTISRDNAKNTVYLPMNSMKPEDTAVYYCKRGLAARVGRVDYWGQGTHVTVSS | low polyreactivity |
| QFQLVESGGGLVQAGGSLRLSCAASGRTFGSNVRGWYRQAPGKERELVAAISVSGGSTYYADSVKGRFTISRDNAKNTVYLQMNSLKPDDTAVYYCAADYPTLGYTQNDYWGQGTQVTVSS | low polyreactivity |
| QVQLVESGGGLVQAGGSLRLSCAASRSTFPRYAMGWSRQAPGKERELVAAISSSGRTYYADSVKGRFTISRDNAKNTVYLQMNSLKPEDTAVYYCNAPVARGEASYYWGQGTEVTVSS | high polyreactivity |
| QVQLVESGGGLVQAGGSLSLSCAASGNIFSYNAMGWYRQAPGKERELVAAITWAGSTYADSVKGRFTISRDNAKNTVFLQRNSLKPEDTAVYYCNAANDSGYDYWGQGTQVTVSS | low polyreactivity |
| QVQLVESGGGLVQAGGSLRLSCAASGITLYINAMGWYRQAPGKERELVAAITRIGGRTYYADSVKGRFTISRDNAKNTVYLQMNSLKPEDTAVYYCNARTYNAFNYWGQGTQVTVSS | high polyreactivity |
